Results taken from patent US20240026407A1, “MODIFICATION OF SAPONINS” (GLAXOSMITHKLINE BIOLOGICALS SA, priority 2020, published 2024).

B1: 814 (protein, listed as Bifidobacterium reuteri)
chain: MSETNATPTYPSVKDLTLEEKASLTSGGDAWHLQSVEHKGIPGYMITDGPHGLRKSLASNTSETDLNDSVPATCFPPAAGLSSSWNPALIRKVGEVMGEECVQEKVAVILGPGVNIKRNPLGGRCFEYWSEDPYLAGHEAVGIVEGVQSKGVGTSLKHFAANNQETDRLRVDARISQRALREIYLPAFEHIVKTAQPWTIMCSYNRINGVHSAQNHWLLTDVLRDEWGFKGIVMSDWGADHDRVASLNAGLNLEMPPSYTDDQIVYAARDGRIDPAQLDRMAQGMIDLTNKARAAMSIDGYRFDVDAHDEVARQAAVESIVMLKNEDAILPIDPAGGKKLAVIGEFARTPRYQGGGSSHITPTKMTSFLDALDERGIKADFAPGFTLDLAPADSALTLEAVETARDADVVLMFLGLPEEAESEGFDRTTLDIPAKQIELLRQVAAENPNVVVVLSNGSVVTVHPWADASKSILESWLLGQAGGRALADVVFGEASPSGKLAQSIPMDINDDPSMLNWPGEEGHVDYGEGVFVGYRYYDTYNKAVDYPFGYGLSYATFEIGDVAVAKTGANTASVTATVTNTSDTPAAETVQVYVAPGKADVARPVHELKGFEKVFLGAGESKTVTIELNERAFAYWSEKYNDWHVEAGEYTVEVGVSSRDIAASIAVTLDGDGKSMPLNEWSTFGEWSADPVGAKVVEAVGAAGERGDMPKLPDNDMMRLFLNSMPINSLPTLLGESGKDLTAFMLDEYAALTK
B2: 886 (protein, listed as Brachyspira suanatina)
chain: MNDNKYSQKIKELMKEMTLEEKVSLLSGKDFWSTKAIDRLKIDSVYLTDGPHGVRKQSTESDELSLQKSVSSTCFPTACCSACSFDPNIMYEMGEAISREAKANKVSVVLGPGVNIKRSPLCGRNFEYFSEDPYLAGKMASGWINGLEDNGIQSSLKHFAANNQETLRLIIDSVVDERALREIYLYAFEIAVKEAKPSTVMCAYNSVNGTFASENKYLLTDILRDEWGFDGIVVSDWGAVNDRVEALKAGLDLQMPSTNGEDDRKVYNAVKETIIDEKILDKAVERLLYFSLYSMDNIYDNFDYDKEEHHNIARKIAENSIVLLKNQDKILPAKKESKIAVIGEFAQKPRYQGNGSSLINAYKIDTAEEYFKENNIEFDYAKGYDSNSADIDNALIEEAVNISKDKDIVIIFAGLINSYESEGFDRKHLNLPENHNHLIEEISKVNKNVVVVLSIGAPVLMPWIDKVKGVLNLYLAGEAAVSAAFNIIFGVVNPSGKLAESFPLSLEDNPSYKYFPGGNKAVEYRESIFVGYRYYDKAQKNVLFPFGFGLSYTTFQFSNLIVSDANTIAGLDNIHVVFDIKNTGDVFGCEVAQVYISAPENNVFKPHKELKSFIKVFLEPGETKTVILKLNKRSFSFYNADTKQYEIESGVYTIYIGNSSRNLLLSKTMEINSINYYQKRIDNYFNFKEINISDNEFQQLLGRKLKPINIKASKPYHLNNNLSDLLDNNIAKEFYNKLLSGLNDMFKDDKTDTKKMFESMMLETPLRSLHTMSGGIITREDVENLINTLNK
B3: 885 (protein, listed as Bifidobacterium indicum)
chain: MTTDKHLQAKDLDIEKEASLTSGSDAWHLQGVPDQGYPEYMITDGPYGLRKATGSDVYGSVPATCFPPTAGLASSWNPDLTYQVGQAMGEECIQEEVAVILGPGINIKRSPLGGRNFEYYSEDPVLAGHQAAGLVDGVQSKGVGTSLKHFAANNQETDRLRVSSDIDERTLREIYLPAFEYVVKHAKPWTIMCAYNKLNGVYGSENRWLLTDVLRGEWGYQGLVMSDWGAVHDRAAALRAGLNLEMPPSASDHEVVEAVRAGNLDKDQLDRMAQGVLDLIEKAKPAMSQKGYRYDVEAHDQVARQAAQESIVMLKNEDGVLPLAPGEKVALIGEFARTPRYQGGGSSHITPTKVTTALDSFKETGMDVDFVPGFTLDEAPQDQSLTDQAVKAAADADKVVLFLGLPEDAESEGFDRTDIDLPTKQLDLLRAVSQVNDQVVVVLSNGSVVSVVDWLPQAKAVLESWLLGQAGGQAVVDILTGGANPSGRLPETIPVRLEDNPSITSFPGEEGHSRYGEGIYVGYRYYDTFNKPVAFPFGFGLSYSTFEISNVRVEKTGPNAVRVDLTVTNTSGIDGAETVQVYVAPCASKVGRPSHELKSFAKVFLKAGESQEISLDLDERDFAYWSTAMNEWHVEAGTYGIEVGTSSRDLVSKLDVDLDGDGLFVRLNSNSTMEEWREDQVGGPIMKSHVEGGKVPLPNDPNTAKLFDSMPLASVITLSGGDGNSVVADMITDYQKAIEQQGLTGASRGSE
B4: 838 (protein)
chain: MSEHTYPSVKDLTLEEKASLTSGGDAWHLQGVEAKGIPGYMITDGPHGLRKSLATSTGETDLDDSVPATCFPPAAGLSSSWNPSLVRKVGEAMGEECIQEKVAVILGPGVNIKRNPLGGRCFEYWSEDPYLAGHEAVGIVEGVQSKGVGTSLKHFAVNNQETDRLRVDARVSQRALREIYLPAFEHIVKTAQPWTIMCSYNRVNGVHSAQNRWLLTDVLRDEWGFKGIVMSDWGADHDRVASVNAGLNLEMPPSGTDDEIVYAARDGRIDPAQLDRMAQGMIDLTDKARAAMSIDGYRFDVDAHDEVAHQAAVESMVLLKNEDAILPLKKDAKIAVIGEFARTPRYQGGGSSHITPTKMTSFLDTLAERGIKADFAPGFTLDLDPADSALELEAVETARDADVALLFLGLPEAAESEGFDRETLDMPAKQIELLAKVAAVNPNVAVVLSNGSVVSVAPWAGNAKGILESWLLGQAGGPALADVIFGEASPSGKLAQSIPLDINDDPSMLNWPGEEGHVDYGEGVFVGYRYYDTYDVAVDYPFGYGLSYASFEISDVHAEKTGANTASVTATVANVSDVDGAETVQVYVAPGKAEVARPSHELKGFAKVFLKAGESKTVTFDLDGRAFAYWSEKYGDWHIEAGAYGIEVGTSSRDIAATATVELEGDGKSLPLDEWSTYGEWEADPVGARVVAAVEAAGESGTLPKLPDNTMMRIFLKSMPINSMPMLMSDGGRRITAFMLDEYAKLTK
modifications: Bifidobacterium stellenboschense
B5: 829 (protein, listed as Pseudonocardia sp.)
chain: MATVDEDLLTTLIARLDLDAKVRLLTGADFWSTPAEPAIGLRRMVLSDGPSGVRGESFDERSPSLSLPSSTALGATWDPELARRYGSTLGAEARRQHADVVLGPTINLHRTPFGGRHFEALSEDPLLTGELAAAYVEGLQAHGVAATPKHYVANDAESERFTVDNVVGERALHELYLAAFEPAVTRGGAWAVMSAYNAVNGATMSENPLLTEPLTGEWGFDGLVMSDWGAVRTTVASARAEQHLVMPGPVSTWGERLVAAVRGGEVDESVVDGKLRRLLRLAARVGALDGGPTPPPAPAPGDGATVARELAAAGSVLVRNTGELPWDASALGTVAVLGHNAALARTQGGGSATVRPAAVVAPLDGLRTALGGDRVRYRLGAQVAEGVQPFDPETVTDPVTGEPGLRAVFRAADGTALRSEHRLGASLIWMSGEIPGGAETVEVSTRWSPEPGAHRIGAAAVGHVTVSADGATVLDTEAVLTGDEGPGAAIFEAPSATAEITTDAPVDLVFRFRPSGGEAGMALFALTVGTETVVADPRAEVAAAASLAADCDVAVVVVGTNDRIESEGFDRTSLALPGHQDDLVRAVAAANPRTVVVVNSGAPVLLPWRDEVAAVLLGWFGGERFGDAVADVLLGHAEPGGRLPTTWPATGEERSVLSGRPTDGVLRYDEGVHLGHRNWLRHGETPAYPFGHGLGYTTWTLDDAVAGPWSADGVAVTVTLTNTGDRAGRQVVQAYLSRTGSDVERPARWLAGWAVVDAAPGTTTATVTVSRRAFRHRAGGVWATEPGTYELHLGFSVADTPLHATVEVVGEG
B6: 808 (protein, listed as Microbacterium lemovicicum)
chain: MTTESTVATSDATSHLLPLLAQLTLAQKAAFVQGADFWATVPLPEIGVRSMTLSDGPAGVRGPRWDEREPSLNLPSGSALAASWDIDLAYRYGAAAASEARRKGVDVVLGPTINLHRSPLGGRHFECFSEDPELTAELGAAYVRGLQDNGVAATPKHYVANDSETDRFTVDVRVDERALRELYLAPFERAVEAGTWSVMSAYNSVDGVTMTENDLLETPLNSEWGFDGVVVSDWTAVRSLDAVAASQDLAMPGPAPAWADLVAAVEDGRVSEADLDRKVLRMLLLAERVGALEGAPGIEPAPVDGVAFTREAAVEGTVLLTNDGTLPLDAAALRSVAVIGHNALEARTQGGGSATVLPEHVVSPLEGLRTALPDAAVSYEIGAVVQEGVAELPLEQLQNTVTGEPGLRVSFFDADGLELFTEDRRSTALVWFGGDAPIAASSSVVLETVYTPAETGEIQLGFAGANPGRVSIDGVEVLAETPLIEGTDLGAAFLNPPSSTAAVRAEAGRPLRLRAEFALSSGGPLAGALSVTLGIAPETTDPDELIARAAAAAASADVAVVVVGTNSKVESEGYDRVDLDLPGRQDDLVRAVAATGTPTIVVVNAGSPVVLPWAGEVAAVVQGYFGGQEFGSAVAAVLTGAAEPGGRLPTTWPAALADVPVTDVAPQDGVLAYTEGIHIGYRAWLRADAAPAFPFGHGLGYTTWSWGAVQRDGDALDVTLANTGARAGKQVVQVYAERADSTVERPVRWLVGFATVRAEAGQTVTATIPLPARRFAHWSDGWQVEGGAFTLRAGASVADLPLTMEWSIGD

experiment: Experiment 5-2: screening of additional glucosidases for deglycosylation with QS-18 in crude bark extract (80%) at pH 6 and 35 deg C; type: biochemical, Quillaja saponaria; conditions: CBE 80%, pH 6, 35 deg C, 18 hours; UV HPLC
Experimental: A plate was lysed at pH 6 as described in Experiment 4-2. 40 uL of clarified lysate was transferred to a reaction plate
The pH of CBE was adjusted to pH 6 by dropwise addition of 2M NaOH with stirring. 160 uL of pH 6 CBE was added to each well of the reaction plate. The reaction plate was sealed and incubated at 35 deg C. with shaking for 18 hours.
The reaction plate was quenched by adding 200 uL of MeCN (2% acetic acid (AcOH), 1 mg/mL hexanophenone) to each well of the plates. The quenched reaction plate was re-sealed and incubated at 20 deg C. with shaking for 10 min. The reaction plate was then centrifuged (10 min, 4 degC).
200 uL was transferred from each well of the quenched plate to the corresponding wells of a fresh 96 well plate and sealed. The plate was analysed by UV HPLC with the method of Experiment 4-4.

Row | Molecule | Experiment 5-2 % conv [%]
1 | B1 | <0.5
2 | B2 | <0.5
3 | B3 | <0.5
4 | B4 | <0.5
5 | B5 | <0.5
6 | B6 | <0.5

experiment: Experiment 5-1: screening of additional glucosidases for deglycosylation with purified QS-18 (0.04 mg/ml) at pH 7.5 and 30 deg C; type: biochemical, Quillaja saponaria; conditions: pH 7.5, 30 degrees C, 18 hours, LCMS/MS
Experimental: The 94 additional genes, together with positive control (DNA encoding SEQ ID No. 262) and negative control, were transformed, expressed, lysed and reacted in the same manner as described above for Experiment 4-1, except the reaction was incubated at 30 degrees C. for 18 hours.
Samples were analysed by LCMS/MS according to the procedure in Experiment 4-1.

Row | Molecule | Experiment 5-1 % conv [%]
7 | B1 | 58.4
8 | B2 | 55.5
9 | B3 | 54.8
10 | B4 | 53.4
11 | B5 | 52.3
12 | B6 | 52.0

experiment: Experiment 5-3: screening of additional glucosidases for deglycosylation with QS-18 in treated bark extract (80%) at pH 6 and 35 deg C; type: biochemical, Quillaja saponaria; conditions: TBE 80% (QS-21 approx. 4 g/L), pH 6, 35 deg C; UV HPLC
Experimental: Experiment 5-1 was repeated, replacing CBE with Treated Bark Extract (TBE) at pH 6. TBE was prepared from CBE by PVPP treatment and concentration, to provide TBE with a QS-21 concentration of approximately 4 g/L. TBE was adjusted to pH 6 by dropwise addition of 2M NaOH with stirring.

Row | Molecule | Experiment 5-3 % conv [%]
13 | B1 | <0.5
14 | B2 | <0.5
15 | B3 | <0.5
16 | B4 | <0.5
17 | B5 | <0.5
18 | B6 | <0.5
